Patent US20060286112A1

Target: human VLA-1 (alpha 1/beta 1, CD49a/CD29) on IL-2 stimulated human PBMC / T cells (human) (UniProt P56199)
Experiment: cell-based or functional assay

Substance: Hu IgG4 (antibody)
- % adhesion of IL-2 activated T cells to collagen IV vs no antibody, 10 µg/ml, +PMA: 109%
- % adhesion of IL-2 activated T cells to collagen IV vs no antibody, 10 µg/ml, -PMA: 106%
- % adhesion of T cells to collagen IV vs no antibody, 5 nM mAb, 10 ng/ml PMA: 95.6%
- % adhesion of T cells to collagen IV vs no antibody, 5 nM mAb, no PMA: 9.5%
